Measurements from patent publication US20050048477A1 (published 2005).

Target: T1, Gal80-Fpr1p fusion (yeast, UniProt P04387 1-435; P20081 1-114)
T1 construct: Encoded on a pRS416 backbone; also called pGP82; not shown: 2 HA tags derived from oligonucleotides GANG33/34 (DNA only)
T1 sequence (looked up): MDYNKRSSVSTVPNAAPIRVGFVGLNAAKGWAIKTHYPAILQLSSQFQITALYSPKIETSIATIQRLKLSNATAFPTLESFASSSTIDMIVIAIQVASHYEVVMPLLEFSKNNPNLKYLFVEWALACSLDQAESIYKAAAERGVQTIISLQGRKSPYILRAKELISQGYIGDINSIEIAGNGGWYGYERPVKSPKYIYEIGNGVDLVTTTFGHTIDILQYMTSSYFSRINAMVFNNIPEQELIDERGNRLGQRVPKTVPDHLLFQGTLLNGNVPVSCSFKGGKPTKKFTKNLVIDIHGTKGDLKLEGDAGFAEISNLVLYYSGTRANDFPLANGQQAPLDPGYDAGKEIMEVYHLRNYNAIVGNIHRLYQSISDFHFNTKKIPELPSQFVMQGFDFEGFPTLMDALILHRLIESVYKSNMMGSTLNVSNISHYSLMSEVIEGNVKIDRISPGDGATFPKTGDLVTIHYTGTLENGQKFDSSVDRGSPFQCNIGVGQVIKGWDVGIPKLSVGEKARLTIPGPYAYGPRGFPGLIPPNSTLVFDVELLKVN
Assay: 80-Trap assay in yeast, HIS3 reporter growth without galactose
Experimental: FIG. 4A illustrates FK506-dependent HIS3 reporter expression. Gal80-Fpr1 designates the Gal80-Fpr1p fusion. Myr-Cna1 designates the plasma membrane targeted Cna1p. Myr-Cmd1 is a plasma membrane targeted calmodulin and is used as a control. The nutrient agar plates used here lacked histidine, tryptophan and uracil and contained 0.5% galactose/3% glycerol/2% lactic acid as carbon source. FK506 was used at 0.25 μg/mL where indicated. Identical results were obtained using nutrient agar lacking galactose (data not shown). […] The nutrient agar plate lacked histidine, tryptophan and uracil and contained 3% glycerol/2% lactic acid as carbon source. Galactose was used at 0.5% where indicated. The lack of tryptophan and uracil are required for selection and maintenance in yeast of the two plasmids Gal80-Fpr1p and Myr-Cna1p, and the lack of histidine is to provide a selective assay for the protein-protein interaction that activates the HIS3 reporter gene carried on a yeast chromosome.
FK506 was used to trigger the interaction between a Gal80-Fpr1p fusion and plasma membrane-localized Myr-Can1p. […] Induction of the galactose-inducible HIS3 reporter gene was assayed. […] It has been reported that Fpr1p also interacts with Hom3p, the aspartokinase, in the absence of FK506 in a yeast two-hybrid assay (Alarcon and Heitman, 1997, Mol. Cell Bio., 17: 5968-5975).

binding result: binds
B1: Myr-Hom3p (other, yeast)
chain: MGCTVSTQTIGDESDPMPMDFQPTSSHSNWVVQKFGGTSVGKFPVQIVDDIVKHYSKPDGPNNNVAVVCSARSSYTKAEGTTSRLLKCCDLASQESEFQDIIEVIRQDHIDNADRFILNPALQAKLVDDTNKELELVKKYLNASKVLGEVSSRTVDLVMSCGEKLSCLFMTALCNDRGCKAKYVDLSHIVPSDFSASALDNSFYTFLVQALKEKLAPFVSAKERIVPVFTGFFGLVPTGLLNGVGRGYTDLCAALIAVAVNADELQVWKEVDGIFTADPRKVPEARLLDSVTPEEASELTYYGSEVIHPFTMEQVIRAKIPIRIKNVQNPLGNGTIIYPDNVAKKGESTPPHPPENLSSSFYEKRKRGATAITTKNDIFVINIHSNKKTLSHGFLAQIFTILDKYKLVVDLISTSEVHVSMALPIPDADSLKSLRQAEEKLRILGSVDITKKLSIVSLVGKHMKQYIGIAGTMFTTLAEEGINIEMISQGANEINISCVINESDSIKALQCIHAKLLSERTNTSNQFEHAIDERLEQLKRLGI
modifications: N-myristoylation at the N-terminal signal
notes: Encoded on a pRS424 backbone under the ADH2 promoter; also called pGP130; not shown: CFP amplified from pDH3
